Measurements as given in the supplement of paper PMC10567573.

B1: HNF4A (parent)
chain: RFSRQCVVDKDKRNQCRYCRLKKC
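Note: lentivirally expressed fusions sorted by FACS into six bins by GFP to DsRed ratio, PSI derived from sequencing read proportions per bin multiplied by bin number.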

Variants of: B1
Experiment: protein stability index of a GFP-peptide fusion (GPS, HEK-293T) (PSI 1-6); higher = more stable
Details: c terminus: a fixed tail appended
Work on RFSRQCVVDKDHRNQCRYCRLKKC [K12H] yielded a protein stability index of 2.93. Variant RFSRQCVVDKDFRNQCRYCRLKKC [K12F] has a protein stability index of 2.25. For RFSRQCVVDKDPRNQCRYCRLKKC [K12P], the protein stability index was 2.76. Variant RFSRQCVVDKDWRNQCRYCRLKKC [K12W] has a protein stability index of 2.28. In the case of RFSRQCVVDKDIRNQCRYCRLKKC [K12I], the protein stability index is reported as 2.54. RFSRQCVVDKDNRNQCRYCRLKKC [K12N] gave a protein stability index of 2.41. In the case of RFSRQCVVDKDDRNQCRYCRLKKC [K12D], the protein stability index is reported as 2.13. Variant RFSRQCVVDKDARNQCRYCRLKKC [K12A] has a protein stability index of 1.51. Variant RFSRQCVVDKDMRNQCRYCRLKKC [K12M] has a protein stability index of 1.97. RFSRQCVVDKDCRNQCRYCRLKKC [K12C] showed a protein stability index of 2.07. RFSRQCVVDKDSRNQCRYCRLKKC [K12S] gave a protein stability index of 2. For RFSRQCVVDKDVRNQCRYCRLKKC [K12V], the protein stability index was 1.99. For RFSRQCVVDKDQRNQCRYCRLKKC [K12Q], the protein stability index was 2.52. For RFSRQCVVDKDYRNQCRYCRLKKC [K12Y], the protein stability index was 2.25. In the case of RFSRQCVVDKDLRNQCRYCRLKKC [K12L], the protein stability index is reported as 1.91. RFSRQCVVDKDGRNQCRYCRLKKC [K12G] gave a protein stability index of 2.76. In the case of RFSRQCVVDKDTRNQCRYCRLKKC [K12T], the protein stability index is reported as 2.85. For RFSRQCVVDKDKRNQCSYCRLKKC [R17S], the protein stability index was 2.4. RFSRQCVVDKDKRNQCCYCRLKKC [R17C] showed a protein stability index of 2.29. Work on RFSRQCVVDKDKRNQCDYCRLKKC [R17D] yielded a protein stability index of 3.29. With RFSRQCVVDKDKRNQCVYCRLKKC [R17V] the protein stability index was 2.21. In the case of RFSRQCVVDKDKRNQCLYCRLKKC [R17L], the protein stability index is reported as 1.84. RFSRQCVVDKDKRNQCKYCRLKKC [R17K] showed a protein stability index of 2.54. With RFSRQCVVDKDKRNQCYYCRLKKC [R17Y] the protein stability index was 2.21. In the case of RFSRQCVVDKDKRNQCHYCRLKKC [R17H], the protein stability index is reported as 2.83. Work on RFSRQCVVDKDKRNQCQYCRLKKC [R17Q] yielded a protein stability index of 3.42. RFSRQCVVDKDKRNQCGYCRLKKC [R17G] showed a protein stability index of 3.16. In the case of RFSRQCVVDKDKRNQCIYCRLKKC [R17I], the protein stability index is reported as 2.9. Work on RFSRQCVVDKDKRNQCEYCRLKKC [R17E] yielded a protein stability index of 3.78. Work on RFSRQCVVDKDKRNQCPYCRLKKC [R17P] yielded a protein stability index of 2.9. For RFSRQCVVDKDKRNQCAYCRLKKC [R17A], the protein stability index was 2.77. With RFSRQCVVDKDKRNQCNYCRLKKC [R17N] the protein stability index was 3.45. For RFSRQCVVDKDKRNQCMYCRLKKC [R17M], the protein stability index was 2.79. For RFSRQCVVDKDKRNQCWYCRLKKC [R17W], the protein stability index was 2.42. RFSRQCVVDKDKRNQCFYCRLKKC [R17F] gave a protein stability index of 2.57. RFSRQCVVDKDKRNQCTYCRLKKC [R17T] gave a protein stability index of 2.69. For RFSRQCVVDKDKRNQCRACRLKKC [Y18A], the protein stability index was 2.2. With RFSRQCVVDKDKRNQCRECRLKKC [Y18E] the protein stability index was 3.41. For RFSRQCVVDKDKRNQCRKCRLKKC [Y18K], the protein stability index was 3.73. Work on RFSRQCVVDKDKRNQCRLCRLKKC [Y18L] yielded a protein stability index of 2.19. Variant RFSRQCVVDKDKRNQCRSCRLKKC [Y18S] has a protein stability index of 3.69. With RFSRQCVVDKDKRNQCRICRLKKC [Y18I] the protein stability index was 3.54. RFSRQCVVDKDKRNQCRTCRLKKC [Y18T] showed a protein stability index of 3.2. Work on RFSRQCVVDKDKRNQCRMCRLKKC [Y18M] yielded a protein stability index of 3.13. Variant RFSRQCVVDKDKRNQCRFCRLKKC [Y18F] has a protein stability index of 2.63. Work on RFSRQCVVDKDKRNQCRRCRLKKC [Y18R] yielded a protein stability index of 3.36. Work on RFSRQCVVDKDKRNQCRHCRLKKC [Y18H] yielded a protein stability index of 3.64. In the case of RFSRQCVVDKDKRNQCRQCRLKKC [Y18Q], the protein stability index is reported as 3.54. In the case of RFSRQCVVDKDKRNQCRPCRLKKC [Y18P], the protein stability index is reported as 3. Work on RFSRQCVVDKDKRNQCRCCRLKKC [Y18C] yielded a protein stability index of 3.61. RFSRQCVVDKDKRNQCRNCRLKKC [Y18N] showed a protein stability index of 3.78. RFSRQCVVDKDKRNQCRGCRLKKC [Y18G] gave a protein stability index of 3.04. For RFSRQCVVDKDKRNGCRYCRLKKC [Q15G], the protein stability index was 2.37. For RFSRQCVVDKDKRNDCRYCRLKKC [Q15D], the protein stability index was 2.89. With RFSRQCVVDKDKRNFCRYCRLKKC [Q15F] the protein stability index was 2.12. RFSRQCVVDKDKRNKCRYCRLKKC [Q15K] gave a protein stability index of 2.85. With RFSRQCVVDKDKRNTCRYCRLKKC [Q15T] the protein stability index was 2.68. In the case of RFSRQCVVDKDKRNACRYCRLKKC [Q15A], the protein stability index is reported as 2.47. RFSRQCVVDKDKRNSCRYCRLKKC [Q15S] gave a protein stability index of 2.79. Work on RFSRQCVVDKDKRNCCRYCRLKKC [Q15C] yielded a protein stability index of 2.8. With RFSRQCVVDKDKRNMCRYCRLKKC [Q15M] the protein stability index was 2.48. With RFSRQCVVDKDKRNICRYCRLKKC [Q15I] the protein stability index was 2.33. With RFSRQCVVDKDKRNVCRYCRLKKC [Q15V] the protein stability index was 2.52. Variant RFSRQCVVDKDKRNRCRYCRLKKC [Q15R] has a protein stability index of 2.73. In the case of RFSRQCVVDKDKRNYCRYCRLKKC [Q15Y], the protein stability index is reported as 2.48. With RFSRQCVVDKDKRNHCRYCRLKKC [Q15H] the protein stability index was 1.96. RFSRQCVVDKDKRNECRYCRLKKC [Q15E] showed a protein stability index of 2.34. Work on RFSRQCVVDKDKRNLCRYCRLKKC [Q15L] yielded a protein stability index of 2.78. RFSRQCVVDKDKRNPCRYCRLKKC [Q15P] gave a protein stability index of 2.21. RFSRQCVVDKFKRNQCRYCRLKKC [D11F] gave a protein stability index of 2.63. For RFSRQCVVDKGKRNQCRYCRLKKC [D11G], the protein stability index was 2.55. In the case of RFSRQCVVDKHKRNQCRYCRLKKC [D11H], the protein stability index is reported as 2.97. RFSRQCVVDKNKRNQCRYCRLKKC [D11N] gave a protein stability index of 2.4. With RFSRQCVVDKLKRNQCRYCRLKKC [D11L] the protein stability index was 2.21. Work on RFSRQCVVDKMKRNQCRYCRLKKC [D11M] yielded a protein stability index of 2.65. Work on RFSRQCVVDKPKRNQCRYCRLKKC [D11P] yielded a protein stability index of 2.9. With RFSRQCVVDKSKRNQCRYCRLKKC [D11S] the protein stability index was 2.04. For RFSRQCVVDKKKRNQCRYCRLKKC [D11K], the protein stability index was 2.4. Work on RFSRQCVVDKVKRNQCRYCRLKKC [D11V] yielded a protein stability index of 2.37. Variant RFSRQCVVDKYKRNQCRYCRLKKC [D11Y] has a protein stability index of 2.45. RFSRQCVVDKIKRNQCRYCRLKKC [D11I] gave a protein stability index of 2.41. RFSRQCVVDKRKRNQCRYCRLKKC [D11R] gave a protein stability index of 2.65. For RFSRQCVVDKQKRNQCRYCRLKKC [D11Q], the protein stability index was 2.63. Work on RFSRQCVVDKTKRNQCRYCRLKKC [D11T] yielded a protein stability index of 2.32. Work on RFSRQCVVDKDKRNQCRYDRLKKC [C19D] yielded a protein stability index of 4.09. With RFSRQCVVDKDKRNQCRYWRLKKC [C19W] the protein stability index was 2.46. Work on RFSRQCVVDKDKRNQCRYFRLKKC [C19F] yielded a protein stability index of 2.39. RFSRQCVVDKDKRNQCRYRRLKKC [C19R] showed a protein stability index of 3.37. For RFSRQCVVDKDKRNQCRYARLKKC [C19A], the protein stability index was 3.07. RFSRQCVVDKDKRNQCRYTRLKKC [C19T] gave a protein stability index of 2.99. RFSRQCVVDKDKRNQCRYPRLKKC [C19P] gave a protein stability index of 3.13. In the case of RFSRQCVVDKDKRNQCRYHRLKKC [C19H], the protein stability index is reported as 3.07. Variant RFSRQCVVDKDKRNQCRYIRLKKC [C19I] has a protein stability index of 2.03. Work on RFSRQCVVDKDKRNQCRYGRLKKC [C19G] yielded a protein stability index of 3.04.
